Laboratory results from US20200397886A1 (University of Washington, published 2020).

Target: T1, I53-50A
T1 construct: Trimeric nanostructure component without antigen, used in the 33% and 66% valency particles; also called I53-50A trimers
T1 chain: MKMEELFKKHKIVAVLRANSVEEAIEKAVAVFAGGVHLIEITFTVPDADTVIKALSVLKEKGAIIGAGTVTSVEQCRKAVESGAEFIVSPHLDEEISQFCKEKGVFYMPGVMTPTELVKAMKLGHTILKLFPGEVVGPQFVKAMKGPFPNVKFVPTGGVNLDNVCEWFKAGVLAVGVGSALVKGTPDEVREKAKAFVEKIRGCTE
Experiment: in vitro co-assembly of partial valency particles

B1: I53-50B.4PosT1 (designed binder)
chain: MNQHSHKDHETVRIAVVRARWHAEIVDACVSAFEAAMRDIGGDRFAVDVFDVPGAYEIPLHARTLAETGRYGAVLGTAFVVNGGIYRHEFVASAVINGMMNVQLNTGVPVLSAVLTPHNYDKSKAHTLLFLALFAVKGMEAARACVEILAAREKIAA
notes: Pentameric nanostructure component expressed in E. coli; the N-terminal methionine is said to be optional; also called I53-50B.4PT1; I53-50B.4PT
  binding result: binds
